Measurements published in the supplement of paper PMC9112550, “Optimization of the antimicrobial peptide Bac7 by deep mutational scanning” (BMC Biology, 2022).

System: Escherichia coli TOP10
Experiment: shrunken log2 fold change of peptide-encoding DNA abundance (4.5 h post-induction vs induction); higher = less antimicrobial activity (less host growth inhibition)
Conditions: time post-induction: 4.5 h; library: site-saturation at positions 5, 18, 19, 20
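Further: peptides expressed intracellularly from a pBAD plasmid library in pooled LB shake-flask culture, induced with 0.3% L-arabinose, DNA abundance read by NGS, three biological replicates, DESeq2 with apeglm shrinkage.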

| Sequence | shrunken log2 fold change |
| --- | --- |
| RRIRYRPPRLPRPRPRPWHYPRP | -0.809 |
| RRIRERPPRLPRPRPRPTMLPRP | 0.00422 |
| RRIRFRPPRLPRPRPRPAQIPRP | -0.00279 |
| RRIRCRPPRLPRPRPRPIGFPRP | 0.129 |
| RRIRARPPRLPRPRPRPPQWPRP | 0.814 |
| RRIRERPPRLPRPRPRPEWEPRP | -0.0115 |
| RRIRERPPRLPRPRPRPMIHPRP | -0.65 |
| RRIRTRPPRLPRPRPRPRWPPRP | 0.424 |
| RRIRERPPRLPRPRPRPIPCPRP | -0.341 |
| RRIRKRPPRLPRPRPRPICAPRP | 0.363 |
| RRIRMRPPRLPRPRPRPWWVPRP | -0.129 |
| RRIRWRPPRLPRPRPRPQYSPRP | -0.653 |
| RRIRLRPPRLPRPRPRPRTLPRP | -0.166 |
| RRIRFRPPRLPRPRPRPSNMPRP | -0.935 |
| RRIRIRPPRLPRPRPRPCLIPRP | -0.337 |
| RRIRQRPPRLPRPRPRPQWPPRP | 0.239 |
| RRIRTRPPRLPRPRPRPVTCPRP | -0.0382 |
| RRIRDRPPRLPRPRPRPLTLPRP | -0.0246 |
| RRIRWRPPRLPRPRPRPDHKPRP | -0.134 |
| RRIRNRPPRLPRPRPRPLHWPRP | -0.273 |

| Sequence | shrunken log2 fold change |
| --- | --- |
| RRIRCRPPRLPRPRPRPWWAPRP | 1.27 |
| RRIRKRPPRLPRPRPRPGQQPRP | 0.0114 |
| RRIRGRPPRLPRPRPRPTILPRP | 0.131 |
| RRIRWRPPRLPRPRPRPMLQPRP | 0.544 |
| RRIRTRPPRLPRPRPRPVMNPRP | -0.143 |
| RRIRKRPPRLPRPRPRPFKIPRP | 0.00571 |
| RRIRKRPPRLPRPRPRPIIKPRP | 0.232 |
| RRIRWRPPRLPRPRPRPHWNPRP | -0.676 |
| RRIRPRPPRLPRPRPRPWEQPRP | 0.201 |
| RRIRSRPPRLPRPRPRPIWDPRP | 0.309 |
| RRIRGRPPRLPRPRPRPVLKPRP | 0.402 |
| RRIRKRPPRLPRPRPRPCFWPRP | 0.42 |
| RRIRFRPPRLPRPRPRPQPTPRP | 0.597 |
| RRIRIRPPRLPRPRPRPQEMPRP | -0.379 |
| RRIRVRPPRLPRPRPRPVTMPRP | -0.196 |
| RRIRMRPPRLPRPRPRPAWTPRP | 0.08 |
| RRIRHRPPRLPRPRPRPWPHPRP | -0.0305 |
| RRIRFRPPRLPRPRPRPVCVPRP | -0.168 |
| RRIRGRPPRLPRPRPRPQAGPRP | 0.695 |
| RRIRMRPPRLPRPRPRPPIKPRP | 0.288 |

| Sequence | shrunken log2 fold change |
| --- | --- |
| RRIRPRPPRLPRPRPRPQLIPRP | -0.108 |
| RRIRIRPPRLPRPRPRPRVMPRP | 0.0377 |
| RRIRMRPPRLPRPRPRPNSSPRP | -0.1 |
| RRIRARPPRLPRPRPRPCERPRP | -0.00198 |
| RRIRFRPPRLPRPRPRPMERPRP | -0.208 |
| RRIRFRPPRLPRPRPRPGRMPRP | 0.0574 |
| RRIRDRPPRLPRPRPRPAILPRP | 0.099 |
| RRIRIRPPRLPRPRPRPNRNPRP | -1.1 |
| RRIRERPPRLPRPRPRPSDKPRP | -0.982 |
| RRIRFRPPRLPRPRPRPQRQPRP | -0.064 |
| RRIRTRPPRLPRPRPRPSKGPRP | -0.605 |
| RRIRNRPPRLPRPRPRPCMWPRP | -0.0288 |
| RRIRQRPPRLPRPRPRPPLAPRP | 0.691 |
| RRIRVRPPRLPRPRPRPPQTPRP | 0.0537 |
| RRIRDRPPRLPRPRPRPRQPPRP | 0.252 |
| RRIRGRPPRLPRPRPRPNGHPRP | 0.197 |
| RRIRGRPPRLPRPRPRPPSLPRP | 0.477 |
| RRIRKRPPRLPRPRPRPTMGPRP | -0.0139 |
| RRIRSRPPRLPRPRPRPPLPPRP | 0.688 |
| RRIRFRPPRLPRPRPRPHHKPRP | -0.462 |
